The values that follow come from patent publication US20230272073A1 (AVA LIFESCIENCE, published 2023).

For this assay, the target named is T1, soluble recombinant version of the IGLV3-21^R110-harboring B-cell receptor, produced as monomeric human IgM (human).
T1 construct: 170.5 kDa, made by transient expression in 293-HEK cells; It was the analyte in solution in BLI; also called soluble IGLV3-21^R110 B-cell receptor; soluble BCR-fragment
Put plainly: BLI (Octet). On the procedure: Kinetic assays were performed by first immobilizing the anti IGLV3-21^R110 antibodies onto biosensors through an indirect capturing reagent, anti-human IgG Fc antibody. Anti IGLV3-21^R110 antibodies were loaded at a concentration of 0.01875 μg/ml to generate an anti IGLV3-21^R110 antibody capture level of between 0.30 and 0.34 nm. […] The anti IGLV3-21^R110 antibody capture biosensors were then submerged in wells containing the different concentrations of the soluble BCR-fragment for 900 seconds (association stage) followed by a dissociation step of 1200 seconds in running buffer. Steps were performed at a constant shake speed of 1000 rpm. All reagents were used as described by the manufacturer. Sensorgrams were generated after double reference correction (buffer and blank sensors) to compensate for both the natural dissociation of the capture anti IGLV3-21^R110 antibody and also non-specific binding of the soluble BCR-fragment to the sensor surface. […] (KD) were calculated based on the ratio of association (kₐ) and dissociation rate (kd) constants, obtained by fitting sensorgrams with a first order 1:1 binding model using the Fortebio Data Analysis software (Satorius).
For the KD values of all humanized antibodies, see Table 3.

T1 sequence (heavy, as listed by the source limits assumed, chain 1 of 2): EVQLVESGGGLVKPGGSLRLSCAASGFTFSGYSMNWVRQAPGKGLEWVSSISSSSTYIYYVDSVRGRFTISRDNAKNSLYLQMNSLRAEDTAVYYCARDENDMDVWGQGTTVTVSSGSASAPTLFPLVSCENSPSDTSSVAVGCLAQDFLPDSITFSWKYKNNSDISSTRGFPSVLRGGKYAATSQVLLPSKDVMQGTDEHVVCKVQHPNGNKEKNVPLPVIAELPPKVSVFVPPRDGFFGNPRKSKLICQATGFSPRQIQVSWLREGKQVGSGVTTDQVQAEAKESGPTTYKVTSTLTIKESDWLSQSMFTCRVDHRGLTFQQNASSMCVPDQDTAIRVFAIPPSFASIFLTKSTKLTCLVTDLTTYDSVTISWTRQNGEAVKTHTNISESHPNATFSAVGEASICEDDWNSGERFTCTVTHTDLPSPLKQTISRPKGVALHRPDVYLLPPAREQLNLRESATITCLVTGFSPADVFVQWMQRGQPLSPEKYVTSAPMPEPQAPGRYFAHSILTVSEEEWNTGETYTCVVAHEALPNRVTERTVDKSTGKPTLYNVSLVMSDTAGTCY
T1 sequence (light, as listed by the source limits assumed, chain 2 of 2): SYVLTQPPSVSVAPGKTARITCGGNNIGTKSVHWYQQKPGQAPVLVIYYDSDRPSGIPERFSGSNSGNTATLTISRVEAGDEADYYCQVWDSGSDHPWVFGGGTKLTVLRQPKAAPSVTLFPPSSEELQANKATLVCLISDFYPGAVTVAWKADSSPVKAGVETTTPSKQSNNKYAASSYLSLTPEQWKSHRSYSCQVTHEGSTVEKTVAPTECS

B1: HC7-LC6 (antibody, human IgG1, kappa, V domains shown)
VH: QVQLQESGPGLVKPSETLSLTCTVSGFSLTSYGIHWIRQSPGRGLEWIGVIWRGGGTDSNAAFMSRITISRDTSKTQVSLKLGSVTAADTAIYYCARSRYDEEESMNYWGQGTSVTVSS
VL: EIVLTQSPSSLSASVGDSVTITCRASGNIHSYLAWYQQKPGKAPKLLIYNAKTLADGVPSRFSGSGSGTQYTLTISSLQPEDFATYYCQHFWNTPPTFGAGTKLELKR
notes: Humanized antibody, human IgG1 / kappa
As for B1, the “fold of dissociation constant relative to chimeric antibody HC0-LC0” value was not above 2 fold.
